Laboratory results published in the supplement of paper PMC10065799, “High-throughput profiling of sequence recognition by tyrosine kinases and SH2 domains using bacterial peptide display” (eLife, 2023).

Tests used:
[1] = molecular target: c-Src SH2; assay: SH2 binding enrichment of the phosphorylated peptide, bacterial display (enrichment ratio); higher = better substrate or ligand; peptides without Tyr show the background
[2] = molecular target: Grb2 SH2 (UniProt P62993); assay: as above
[3] = molecular target: SHP2-C SH2; assay: as above
[4] = tested on: c-Src; assay: phosphorylation enrichment, bacterial display (enrichment ratio); higher = better substrate or ligand; peptides without Tyr show the background
[5] = molecular target: Fyn (UniProt P06241); assay: as above
Chain of Fyn (P06241 whole entry, looked up): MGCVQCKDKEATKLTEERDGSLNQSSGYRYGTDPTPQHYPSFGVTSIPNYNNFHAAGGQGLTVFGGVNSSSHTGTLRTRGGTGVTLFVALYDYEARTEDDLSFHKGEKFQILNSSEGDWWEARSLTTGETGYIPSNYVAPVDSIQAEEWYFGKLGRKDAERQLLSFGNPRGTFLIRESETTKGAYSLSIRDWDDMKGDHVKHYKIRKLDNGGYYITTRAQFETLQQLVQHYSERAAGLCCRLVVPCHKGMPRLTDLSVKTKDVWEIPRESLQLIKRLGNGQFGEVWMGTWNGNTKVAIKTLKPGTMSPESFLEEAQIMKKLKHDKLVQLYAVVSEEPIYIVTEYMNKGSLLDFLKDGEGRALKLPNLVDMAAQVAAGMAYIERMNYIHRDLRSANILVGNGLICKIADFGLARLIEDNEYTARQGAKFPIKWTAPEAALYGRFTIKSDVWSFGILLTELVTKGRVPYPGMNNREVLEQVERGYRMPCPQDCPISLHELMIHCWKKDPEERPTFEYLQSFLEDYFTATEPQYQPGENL

[6] = tested on: Fer (mouse); assay: as above
[7] = molecular target: MERTK (UniProt Q12866); assay: as above
[8] = molecular target: FGFR1 (UniProt P11362); assay: as above
Chain of FGFR1 (P11362 whole entry, looked up): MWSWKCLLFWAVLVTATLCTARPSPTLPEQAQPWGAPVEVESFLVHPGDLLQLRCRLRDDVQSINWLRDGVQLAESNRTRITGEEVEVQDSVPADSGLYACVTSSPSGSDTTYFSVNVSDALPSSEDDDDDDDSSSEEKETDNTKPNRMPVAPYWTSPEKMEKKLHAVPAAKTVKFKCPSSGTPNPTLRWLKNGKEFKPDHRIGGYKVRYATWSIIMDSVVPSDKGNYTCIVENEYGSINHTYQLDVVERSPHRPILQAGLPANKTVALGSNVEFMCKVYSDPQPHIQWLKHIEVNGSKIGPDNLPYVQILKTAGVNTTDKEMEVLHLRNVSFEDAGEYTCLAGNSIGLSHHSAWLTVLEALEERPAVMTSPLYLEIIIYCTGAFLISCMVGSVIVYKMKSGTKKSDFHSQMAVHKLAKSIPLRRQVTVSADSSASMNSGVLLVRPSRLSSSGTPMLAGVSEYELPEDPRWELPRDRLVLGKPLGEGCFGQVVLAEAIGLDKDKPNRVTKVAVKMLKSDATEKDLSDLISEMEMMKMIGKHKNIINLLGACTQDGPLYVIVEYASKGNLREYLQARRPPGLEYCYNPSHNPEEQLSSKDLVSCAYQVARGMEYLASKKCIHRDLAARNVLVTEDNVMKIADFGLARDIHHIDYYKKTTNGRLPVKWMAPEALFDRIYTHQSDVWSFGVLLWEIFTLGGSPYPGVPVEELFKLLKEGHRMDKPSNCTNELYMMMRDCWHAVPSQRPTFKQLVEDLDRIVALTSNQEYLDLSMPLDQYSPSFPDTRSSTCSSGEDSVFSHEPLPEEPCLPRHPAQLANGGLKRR

[9] = molecular target: EPHB2 (UniProt P29323); assay: as above
Chain of EPHB2 (P29323 whole entry, looked up): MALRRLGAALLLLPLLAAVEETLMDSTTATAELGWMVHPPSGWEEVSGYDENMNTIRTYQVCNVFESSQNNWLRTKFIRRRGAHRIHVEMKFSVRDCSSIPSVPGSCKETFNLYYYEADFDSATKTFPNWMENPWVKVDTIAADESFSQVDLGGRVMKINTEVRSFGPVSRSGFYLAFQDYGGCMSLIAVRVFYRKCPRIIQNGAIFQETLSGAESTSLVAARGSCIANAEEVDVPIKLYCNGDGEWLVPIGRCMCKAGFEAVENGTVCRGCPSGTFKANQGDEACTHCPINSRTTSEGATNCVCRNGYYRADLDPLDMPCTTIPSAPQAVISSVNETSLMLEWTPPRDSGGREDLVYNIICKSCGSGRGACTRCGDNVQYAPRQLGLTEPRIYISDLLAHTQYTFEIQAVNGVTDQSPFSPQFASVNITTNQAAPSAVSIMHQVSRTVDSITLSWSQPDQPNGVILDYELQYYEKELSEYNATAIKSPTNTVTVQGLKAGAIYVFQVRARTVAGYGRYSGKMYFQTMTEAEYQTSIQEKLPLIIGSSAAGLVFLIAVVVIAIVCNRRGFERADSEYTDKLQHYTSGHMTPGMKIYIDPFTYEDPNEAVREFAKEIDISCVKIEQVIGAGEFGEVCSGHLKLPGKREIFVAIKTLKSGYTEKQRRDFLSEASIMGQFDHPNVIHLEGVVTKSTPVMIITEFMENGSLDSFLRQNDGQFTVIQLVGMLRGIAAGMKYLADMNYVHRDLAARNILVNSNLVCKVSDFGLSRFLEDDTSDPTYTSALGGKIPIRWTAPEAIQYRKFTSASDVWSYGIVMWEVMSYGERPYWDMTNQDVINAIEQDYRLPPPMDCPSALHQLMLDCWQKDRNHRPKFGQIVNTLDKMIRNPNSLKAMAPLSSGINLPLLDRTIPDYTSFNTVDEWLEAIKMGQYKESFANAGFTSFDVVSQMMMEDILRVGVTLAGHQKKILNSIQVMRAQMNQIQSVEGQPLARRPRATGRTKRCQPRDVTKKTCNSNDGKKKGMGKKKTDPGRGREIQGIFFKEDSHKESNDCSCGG

[10] = molecular target: Hck (UniProt P08631); assay: as above
Chain of Hck (P08631 whole entry, looked up): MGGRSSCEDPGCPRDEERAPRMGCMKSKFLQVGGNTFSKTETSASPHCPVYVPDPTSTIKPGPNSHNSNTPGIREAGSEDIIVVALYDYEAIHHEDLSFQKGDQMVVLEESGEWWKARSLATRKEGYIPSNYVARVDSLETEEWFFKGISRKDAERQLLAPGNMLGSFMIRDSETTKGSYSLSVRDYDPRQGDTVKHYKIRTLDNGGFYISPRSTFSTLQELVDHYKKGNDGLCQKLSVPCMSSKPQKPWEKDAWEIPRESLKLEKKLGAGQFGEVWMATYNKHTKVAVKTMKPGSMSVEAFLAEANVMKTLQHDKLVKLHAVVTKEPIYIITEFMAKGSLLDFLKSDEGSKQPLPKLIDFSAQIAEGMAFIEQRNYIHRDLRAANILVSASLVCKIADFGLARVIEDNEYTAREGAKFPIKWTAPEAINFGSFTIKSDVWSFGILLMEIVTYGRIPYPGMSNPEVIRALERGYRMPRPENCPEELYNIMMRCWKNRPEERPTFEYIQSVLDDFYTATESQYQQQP

[11] = molecular target: FGFR3 (UniProt P22607); assay: as above
Chain of FGFR3 (P22607 whole entry, looked up): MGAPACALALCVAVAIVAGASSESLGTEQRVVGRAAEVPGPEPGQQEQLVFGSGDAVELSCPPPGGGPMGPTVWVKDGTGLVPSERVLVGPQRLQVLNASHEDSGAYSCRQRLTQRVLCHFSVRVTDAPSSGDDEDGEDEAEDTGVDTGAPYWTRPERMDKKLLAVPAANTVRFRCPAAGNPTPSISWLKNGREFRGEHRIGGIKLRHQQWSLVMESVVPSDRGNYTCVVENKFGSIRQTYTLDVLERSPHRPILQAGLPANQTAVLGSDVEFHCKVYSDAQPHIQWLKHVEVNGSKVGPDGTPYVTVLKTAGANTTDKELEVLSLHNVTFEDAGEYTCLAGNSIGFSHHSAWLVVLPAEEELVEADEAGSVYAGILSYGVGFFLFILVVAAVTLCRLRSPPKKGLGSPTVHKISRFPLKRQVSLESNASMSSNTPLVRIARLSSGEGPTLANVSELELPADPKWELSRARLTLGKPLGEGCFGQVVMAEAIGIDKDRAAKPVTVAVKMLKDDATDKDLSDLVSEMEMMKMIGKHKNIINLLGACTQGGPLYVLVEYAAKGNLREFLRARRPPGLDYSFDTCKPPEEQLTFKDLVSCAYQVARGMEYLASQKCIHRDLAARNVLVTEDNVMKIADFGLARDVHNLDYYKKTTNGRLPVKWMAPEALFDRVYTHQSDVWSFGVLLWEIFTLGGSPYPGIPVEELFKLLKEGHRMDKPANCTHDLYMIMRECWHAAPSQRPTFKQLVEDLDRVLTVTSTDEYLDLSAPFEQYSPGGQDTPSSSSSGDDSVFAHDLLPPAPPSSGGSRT

[12] = molecular target: Jak2 (UniProt O60674); assay: as above
[13] = molecular target: EPHB1 (UniProt P54762); assay: as above
[14] = tested on: AncSZ; assay: as above
[15] = tested on: c-Abl (mouse); assay: as above
[16] = molecular target: Fes (UniProt P07332); assay: as above
Chain of Fes (P07332 whole entry, looked up, the tested form may be a part): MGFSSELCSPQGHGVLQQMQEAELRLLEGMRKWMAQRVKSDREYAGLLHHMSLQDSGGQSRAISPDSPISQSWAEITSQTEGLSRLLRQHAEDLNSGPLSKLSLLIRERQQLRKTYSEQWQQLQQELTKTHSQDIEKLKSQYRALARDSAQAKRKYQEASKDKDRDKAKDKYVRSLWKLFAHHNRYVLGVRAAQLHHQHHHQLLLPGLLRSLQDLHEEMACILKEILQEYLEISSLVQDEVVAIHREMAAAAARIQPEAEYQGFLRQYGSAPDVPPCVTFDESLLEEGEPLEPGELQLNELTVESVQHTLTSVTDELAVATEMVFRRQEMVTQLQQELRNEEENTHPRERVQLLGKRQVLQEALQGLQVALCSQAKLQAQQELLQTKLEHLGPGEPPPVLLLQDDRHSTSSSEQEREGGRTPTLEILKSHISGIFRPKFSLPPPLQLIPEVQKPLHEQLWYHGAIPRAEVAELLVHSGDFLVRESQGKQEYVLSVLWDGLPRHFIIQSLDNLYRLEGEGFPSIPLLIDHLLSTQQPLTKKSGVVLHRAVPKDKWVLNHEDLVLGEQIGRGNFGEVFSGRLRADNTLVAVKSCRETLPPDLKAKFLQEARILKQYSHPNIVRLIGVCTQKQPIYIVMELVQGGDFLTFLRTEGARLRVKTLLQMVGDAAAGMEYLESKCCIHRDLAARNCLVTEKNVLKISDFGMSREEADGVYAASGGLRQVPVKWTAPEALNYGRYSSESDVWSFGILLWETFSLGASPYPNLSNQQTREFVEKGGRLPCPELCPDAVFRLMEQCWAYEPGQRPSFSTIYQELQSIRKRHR
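For SH2 binding enrichment of the phosphorylated peptide, bacterial display in this document: peptide library displayed on the E. coli surface as eCPX fusions, selected cells deep-sequenced, score is each peptide's frequency after selection divided by its frequency in the input.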
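For phosphorylation enrichment, bacterial display in this document: 11-residue human phosphosite peptides and single-mutation variants displayed on the E. coli surface, counted by deep sequencing, each peptide's frequency after selection divided by its frequency in the unselected input library; frequency after pTyr selection over input frequency; kinase dosed for 20-30% of maximal phosphorylation in three min.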

| Sequence | SH2 binding enrichment [1] | SH2 binding enrichment [2] | SH2 binding enrichment [3] | phosphorylation enrichment [4] | phosphorylation enrichment [5] | phosphorylation enrichment [6] | phosphorylation enrichment [7] | phosphorylation enrichment [8] | phosphorylation enrichment [9] | phosphorylation enrichment [10] | phosphorylation enrichment [11] | phosphorylation enrichment [12] | phosphorylation enrichment [13] | phosphorylation enrichment [14] | phosphorylation enrichment [15] | phosphorylation enrichment [16] |
| --- | --- | --- | --- | --- | --- | --- | --- | --- | --- | --- | --- | --- | --- | --- | --- | --- |
| VEEDTYTMPST [PTK2_Y407_D402V] | 0.424 | 0.64 | 0.648 | 4.81 | 6.55 | 0.741 | 1.6 | 0.697 | 0.675 | 3.5 | 0.984 | 1.12 | 0.879 | 4.74 | 1.18 | 1.31 |
| EPGSLYGCGGG [ATM_Y2019_D2016G] | 0.589 | 1.24 | 0.695 | 0.918 | 0.851 | 0.818 | 0.634 | 0.52 | 0.527 | 2.19 | 0.567 | 0.707 | 0.548 | 0.77 | 0.584 | 0.803 |
| LFMGDYVGRGY [PPP2CA_Y86_D88G] | 0.536 | 0.854 | 0.596 | 1.53 | 1.37 | 0.713 | 0.847 | 1.17 | 1.72 | 1.75 | 1.19 | 2.97 | 2.15 | 1.53 | 0.953 | 1.21 |
| RGLQVYHRRNA [LRP2_Y2010] | 0.486 | 0.674 | 0.604 | 1.49 | 0.964 | 0.803 | 1.2 | 1.1 | 0.86 | 0.783 | 0.889 | 1.2 | 0.755 | 1.41 | 0.957 | 1.05 |
| VDTRAYLTSAT [MT-CO1_Y304_F305L] | 0.439 | 0.774 | 0.569 | 0.414 | 0.436 | 0.488 | 0.393 | 0.518 | 0.438 | 0.377 | 0.723 | 0.603 | 0.589 | 0.671 | 0.637 | 0.763 |
| GEYYRYLAEVA [YWHAG_Y133_D129E] | 0.669 | 0.827 | 0.848 | 2.34 | 1.52 | 0.374 | 1.73 | 9.65 | 2.05 | 1.4 | 7.42 | 4.37 | 1.13 | 2.12 | 1.88 | 0.858 |
| GRGMPYGGRGD [TGM1_Y312_R307G] | 0.513 | 0.87 | 0.648 | 0.402 | 0.343 | 0.399 | 0.379 | 0.355 | 0.325 | 0.4 | 0.449 | 0.488 | 0.338 | 0.476 | 0.513 | 0.476 |
| GSRGKCSSGFR [ATM_Y332_Y332C] | 0.915 | 1.06 | 0.713 | 0.387 | 0.395 | 0.433 | 0.411 | 0.403 | 0.379 | 0.464 | 0.423 | 0.532 | 0.41 | 0.471 | 0.709 | 0.558 |
| LGIDRYHAIVF [NPSR1_Y147_S143G_YF] | 1.28 | 0.851 | 0.689 | 1.11 | 0.732 | 1.04 | 1.52 | 1.55 | 1.41 | 0.942 | 1.37 | 2.47 | 1.22 | 2.59 | 1.31 | 1.82 |
| PTTKTYFPHFF [HBA1_Y43_D48Y_YF] | 0.683 | 1.23 | 1.01 | 0.471 | 0.723 | 0.864 | 0.607 | 0.824 | 0.716 | 0.672 | 0.696 | 0.569 | 0.547 | 0.681 | 0.453 | 0.584 |
| PSQRHYVFFFS [PTEN_Y174_R173H_YF] | 0.896 | 1.25 | 1.16 | 0.787 | 0.757 | 0.535 | 0.892 | 0.759 | 0.763 | 0.712 | 1.2 | 1.92 | 0.926 | 2.04 | 1.22 | 2.72 |

Now from value to sequence, other results behind:

| SH2 binding enrichment [1] | SH2 binding enrichment [2] | SH2 binding enrichment [3] | Sequence | phosphorylation enrichment [4] | phosphorylation enrichment [5] | phosphorylation enrichment [6] | phosphorylation enrichment [7] | phosphorylation enrichment [8] | phosphorylation enrichment [9] | phosphorylation enrichment [10] | phosphorylation enrichment [11] | phosphorylation enrichment [12] | phosphorylation enrichment [13] | phosphorylation enrichment [14] | phosphorylation enrichment [15] | phosphorylation enrichment [16] |
| --- | --- | --- | --- | --- | --- | --- | --- | --- | --- | --- | --- | --- | --- | --- | --- | --- |
| 0.553 | 0.675 | 0.424 | YASALYGQRRS [FGF11_Y162_R163G] | 0.784 | 0.659 | 0.411 | 0.505 | 0.371 | 0.384 | 1.54 | 0.408 | 0.604 | 0.391 | 0.633 | 0.978 | 0.668 |
| 0.5 | 0.713 | 0.758 | FDAHIYEGCVI [PRKCD_Y64_R67C] | 3.34 | 2.48 | 10.5 | 0.635 | 0.563 | 0.639 | 2.53 | 0.831 | 1.05 | 0.656 | 1.39 | 0.938 | 1.44 |
| 0.575 | 0.889 | 0.842 | KVDKECEVRVR [GHR_Y226_Y226C] | 0.446 | 0.421 | 0.478 | 0.355 | 0.502 | 0.569 | 0.414 | 0.556 | 0.821 | 0.513 | 0.739 | 0.638 | 0.832 |
| 0.631 | 1.01 | 0.59 | EKQVAYCPSGR [ROS1_Y2323_K2328R] | 0.782 | 0.569 | 0.675 | 0.667 | 0.531 | 0.615 | 0.501 | 0.705 | 1.27 | 0.511 | 2.05 | 1.06 | 1.18 |
| 0.639 | 1.02 | 1.03 | FSLPAFMDRRD [COX4I1_Y38_Y38F] | 0.459 | 0.458 | 0.455 | 0.4 | 0.473 | 0.456 | 0.41 | 0.537 | 0.807 | 0.396 | 0.947 | 0.497 | 0.81 |
